What was measured:
NELF-E = target: T1, NELF-E (Drosophila, UniProt P92204 P92204:1-280); assay: pulldown; serial microcolumns, qPCR; enrichment falls above 0.6 ug/uL NELF-E, de-enriched at 10 ug/uL; conditions: tags: N-terminal hexahistidine; immobilised on Ni-NTA Superflow resin
T1 sequence: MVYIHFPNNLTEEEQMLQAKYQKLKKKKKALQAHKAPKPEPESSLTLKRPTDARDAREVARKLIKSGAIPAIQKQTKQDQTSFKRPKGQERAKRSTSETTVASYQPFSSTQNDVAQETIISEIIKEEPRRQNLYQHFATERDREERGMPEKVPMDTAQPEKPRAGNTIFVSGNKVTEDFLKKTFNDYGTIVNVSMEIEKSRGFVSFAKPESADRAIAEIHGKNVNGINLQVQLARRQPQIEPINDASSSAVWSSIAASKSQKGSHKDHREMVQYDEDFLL

GFP = GFP (UniProt P42212 P42212:1-238); assay: pulldown; serial microcolumns, qPCR; 10 mM HEPES-KOH pH 7.6, 125 mM NaCl, 25 mM KCl, 5 mM MgCl2, 0.02% Tween-20; GFP 0.6 ug/uL resin; conditions: tags: N-terminal hexahistidine; immobilised on Ni-NTA Superflow resin
Method: (§1) The order of targets was as follows: Empty, GSH, Ni-NTA, Amylose, His-GFP, GST-hHSF1, His-NELF-E, His-UBLCP1, and is illustrated in FIG. 41 in section I.
(§2) The RNA pools were injected at a rate of 33 μL/min for 30 min with a 10 μL aliquot of each pool set aside and used as a standard for quantitative polymerase chain reaction (qPCR) analysis. All buffers and solutions were degassed prior to use and introduced into the microcolumns via programmable multichannel syringe pumps (Harvard Apparatus) with MEDUSA placed onto a 96-well format liquid waste reservoir. The microcolumns were reconfigured to run in parallel by removing the caps and silicone layers permitting the connectivity of microcolumns, and reassembling the device with the appropriate caps for a parallel configuration, and washed with 3 mL of binding buffer at a rate of 300 μL/min. The RNA/RNA-protein complexes were eluted directly into a 96-well microplate from the individual microcolumns by flowing elution buffer [binding buffer+50 mM ethylenediaminetetraacetic acid (EDTA pH 8.0) for selections with Ni-NTA resin; binding buffer+10 mM glutathione for selections with GSH resin; binding buffer+10 mM maltose for selections with amylose-resin] at a rate of 50 μL/min for 12 min. […]

[1] = target: hHSF1 (heat shock factor 1) (UniProt Q00613 Q00613:1-529); assay: pulldown; serial microcolumns, qPCR; same buffer, 5 mM MgCl2; conditions: tags: N-terminal GST; immobilised on glutathione-agarose
Sequence of hHSF1 (heat shock factor 1) (Q00613 whole entry, one chain of several): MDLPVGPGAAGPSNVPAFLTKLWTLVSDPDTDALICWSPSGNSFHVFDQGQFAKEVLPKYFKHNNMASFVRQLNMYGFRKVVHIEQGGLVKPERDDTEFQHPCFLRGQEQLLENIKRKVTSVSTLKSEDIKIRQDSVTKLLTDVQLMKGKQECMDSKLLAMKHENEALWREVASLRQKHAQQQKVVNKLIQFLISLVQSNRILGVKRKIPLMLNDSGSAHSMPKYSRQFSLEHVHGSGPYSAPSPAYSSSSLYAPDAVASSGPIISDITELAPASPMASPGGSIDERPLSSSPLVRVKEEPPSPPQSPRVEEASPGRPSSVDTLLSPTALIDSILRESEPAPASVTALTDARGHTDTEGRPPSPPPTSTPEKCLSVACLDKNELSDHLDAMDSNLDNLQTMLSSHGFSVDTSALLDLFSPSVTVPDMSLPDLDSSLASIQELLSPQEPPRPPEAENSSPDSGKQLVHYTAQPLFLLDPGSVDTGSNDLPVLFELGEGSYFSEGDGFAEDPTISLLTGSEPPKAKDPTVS
Method: as §1, §2

B1: NELFapt (Napt1) (ssRNA)
RNA: GGGAAUGGAUCCACAUCUACGAAUUCCCAACGACUGCCGAGCGAGAUUACGCUUGAGCGCCCCACUGAGGAUGCCCACGGGCGAUUGGGGCACGGCUUCACUGCAGACUUGACGAAGCUU
NELF-E
  binding signal: 262 fold enrichment over N70 library

B2: GFPapt (AP3-1) (ssRNA)
RNA: AGCUUCUGGACUGCGAUGGGAGCACGAAACGUCGUGGCGCAAUUGGGUGGGGAAAGUCCUUAAAAGAGGGCCACCACAGAAGCU
GFP
  binding signal: 750 fold enrichment over N70 library

B3: HSFapt (hHSF2-R5-2) (ssRNA)
RNA: GGGAAUGGAUCCACAUCUACGAAUUCAAUCAAGUCCCCAGACUCAGCAACACUGGACAGCGAUAUGCAGAUAACCAAGACCAAUUCACUCCAGUUCACUGCAGACUUGACGAAGCUU
[1]
  binding signal: 232 fold enrichment over N70 library
